Reference: patent US11332546B2, “Protease inhibitory antibodies and methods of use thereof” (The Regents of The University of California, priority 2019, dated 2022)

T1: BACE2 (Homo sapiens, UniProt Q9Y5Z0)
T1 sequence (Q9Y5Z0 63-518): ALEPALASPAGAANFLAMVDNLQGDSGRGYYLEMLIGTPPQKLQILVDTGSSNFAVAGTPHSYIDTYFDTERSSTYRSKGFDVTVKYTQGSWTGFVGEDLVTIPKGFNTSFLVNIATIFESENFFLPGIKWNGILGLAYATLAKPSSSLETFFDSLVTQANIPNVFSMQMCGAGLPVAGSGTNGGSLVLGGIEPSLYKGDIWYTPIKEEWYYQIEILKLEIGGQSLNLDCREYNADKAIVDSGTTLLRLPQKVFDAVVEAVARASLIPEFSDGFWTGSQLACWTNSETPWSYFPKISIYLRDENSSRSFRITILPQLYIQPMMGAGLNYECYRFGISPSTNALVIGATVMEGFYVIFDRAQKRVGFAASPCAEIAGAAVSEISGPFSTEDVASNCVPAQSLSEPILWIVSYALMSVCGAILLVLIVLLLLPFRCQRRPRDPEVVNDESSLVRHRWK


Columns and labels:
cdMMP-12 wt = target: T2, cdMMP-12 wt (Homo sapiens, UniProt P39900); assay: Fibronectin proteolysis inhibition, cdMMP-12 wt (western blot); assay type: biochemical; details: 2 μM GM6001; 350 nM wt cdMMP-12, 200 nM fibronectin, 37° C.
T2 construct: hexahistidine (C); made in house; host or cells: E. coli BL21 (pET32b, cytoplasmic)
T2 sequence (P39900 106-263): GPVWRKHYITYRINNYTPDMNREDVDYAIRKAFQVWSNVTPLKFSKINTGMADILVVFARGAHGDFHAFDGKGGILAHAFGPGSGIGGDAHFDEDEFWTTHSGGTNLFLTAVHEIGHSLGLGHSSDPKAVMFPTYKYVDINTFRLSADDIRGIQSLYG
Description: Inhibition tests with macromolecular substrates 10 μg/mL FITC-conjugated elastin (AnaSpec) was incubated with 7 nM cdMMP-12 D4/wt and 2-2000 nM purified Fab in 50 mM Tris-HCl, 150 mM NaCl, 5 mM CaCl2), 100 μM ZnCl2 pH 7.5. Generated fluorescent signals were measured at 12 h with λEx of 490 nm and λEm of 520 nm. […] The samples were separated on 5% non-reducing SDS-PAGE and analyzed by western blotting with anti-Fibronectin antibody (Abcam) and chemiluminescent substrate (Thermo Scientific). […] Assays without cdMMP-12s or Fabs were performed as controls.

cdMMP-12 mutant D4 = target: T3, cdMMP-12 mutant D4 (Homo sapiens, UniProt P39900, A167E/A173P/A252Q/H206S/I245T/K233R/M156E/N119Q/N126H/R135E/T215V/V161I/Y113D/Y132K); assay: Bio-layer interferometry (BLItz) on cdMMP-12 D4; assay type: binding; details: read-out: Affinity on cdMMP-12 D4
T3 construct: hexahistidine (C); made in house; host or cells: E. coli BL21, pET32b (cytoplasmic, soluble fraction)
T3 sequence (P39900 106-263 Y113D/N119Q/N126H/Y132K/R135E/M156E/V161I/A167E/A173P/H206S/T215V/K233R/I245T/A252Q): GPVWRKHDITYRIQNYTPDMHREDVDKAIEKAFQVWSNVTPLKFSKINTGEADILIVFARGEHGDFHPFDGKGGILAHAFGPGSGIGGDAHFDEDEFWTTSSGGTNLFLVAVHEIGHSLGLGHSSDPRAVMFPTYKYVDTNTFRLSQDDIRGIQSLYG
Description: ELISA and binding kinetics measurement Purified cdMMP-9, cdMMP-12 D4/wt, and cdMMP-14 were biotinylated by using EZ-Link Sulfo-NHS-LC kit (Thermo Fisher). On streptavidin coated ELISA plates, 5 μg/mL biotinylated cdMMPs were immobilized and incubated with two-fold serially diluted purified Fabs. Bound Fabs were detected with anti-Fab-HRP (Sigma-Aldrich), and signals were developed by TMB substrate (Thermo Scientific) and measured using a microplate reader (BioTek). In competitive ELISA, 500 nM Fabs of interest were mixed with 0.01-10 μM GM6001 or 0.8-200 μM nTIMP-2 for 30 min, then transferred to ELISA plates coated with cdMMP-12 D4/wt for incubation 15 min at room temperature. Bound Fabs were detected using anti-Fab-HRP. For bio-layer interferometry (using ForteBio BLItz), biotinylated cdMMP-12 D4/wt was loaded onto streptavidin biosensors. After washing to establish baselines, 50, 100, or 200 nM of Fabs were associated with immobilized cdMMP-12 D4/wt for 200 sec, then dissociated into 50 mM HEPES, 150 mM NaCl pH 7.5 for 120 sec. Averages of measured kon and koff values were determined for KD calculations.

cdMMP-9 = assay: FRET inhibition selectivity test, cdMMP-9 (Example 1); assay type: biochemical; details: Fab at 500 nM
Description: (§1) For inhibition tests, 1 μM Fabs were 2-fold serially diluted into protease specific assay buffer and incubated with 1-10 nM proteases for 30 min at room temperature. […] Inhibition percentages at given concentrations were calculated by comparing the initial reaction rates in the presence or absence of inhibitor. IC50 was determined as the concentration that achieved 50% inhibition, and KI values were calculated using KI=IC50/(S/Km+1). Vmax and Km at various Fab concentrations were measured to determine the inhibition type. FRET inhibition assays were also used for selectivity tests of isolated Fabs with the relevant proteases.

BACE1 [1] = target: T4, BACE1 (Homo sapiens, UniProt P56817); assay: Binding kinetics by biolayer interferometry, Fabs/IgGs on BACE1; details: for Kd: Fab, read-out: Binding Affinity KD; for Binding Affinity KD (associated IgG, in parentheses): IgG format
T4 construct: human β-secretase 1 (BACE1, residue 46-457); made in house; host or cells: HEK293F (secreted, protein A purified)
T4 sequence (P56817 46-457): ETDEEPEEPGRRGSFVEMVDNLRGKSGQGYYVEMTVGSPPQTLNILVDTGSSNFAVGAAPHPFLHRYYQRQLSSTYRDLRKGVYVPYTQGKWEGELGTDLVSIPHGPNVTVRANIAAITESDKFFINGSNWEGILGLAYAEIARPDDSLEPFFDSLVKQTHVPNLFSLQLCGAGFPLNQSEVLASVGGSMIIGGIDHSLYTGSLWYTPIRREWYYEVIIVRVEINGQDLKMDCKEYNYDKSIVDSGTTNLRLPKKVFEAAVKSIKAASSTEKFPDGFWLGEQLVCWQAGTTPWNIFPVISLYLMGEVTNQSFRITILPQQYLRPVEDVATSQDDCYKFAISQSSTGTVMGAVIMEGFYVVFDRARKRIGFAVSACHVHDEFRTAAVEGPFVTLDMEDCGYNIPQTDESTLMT
Description: Binding kinetics of produced antibodies towards associated protease targets were analyzed by using biolayer interferometry (ForteBio). For Fabs, biotinylated proteases were immobilized on streptavidin biosensors, and Fab binding to the sensors in absence of protease was monitored as backgrounds. For IgGs, protein A sensors were used and protease bindings without IgG were checked as backgrounds. kon and koff were determined for KD calculations. […] Fab in vitro stability was tested by incubating 1 μM Fab with 1 μM of the respective protease in the assay buffer for 12 hours and the samples were analyzed by SDS-PAGE.

BACE1 [2] = target: T4, BACE1; assay: FRET peptide inhibition assay, BACE1 (M-2420); assay type: biochemical; details: BACE-1, FRET peptide; for Ki: Fab, read-out: Inhibition Potency KI; for Inhibition Potency KI (associated IgG, in parentheses): IgG format
Description: as §1

BACE2 = target: T1, BACE2; assay: FRET inhibition selectivity test, BACE2; assay type: biochemical; details: IgG
Description: as §1

| Molecule | Kd (BACE1 [1]) | Ki (BACE1 [2]) | further results |
| --- | --- | --- | --- |
| CNC(=O)[C@H](Cc1c[nH]c2ccccc12)NC(=O)[C@@H](CC(=O)NO)CC(C)C [GM6001, reference compound] | – | – | Fibronectin remaining after cdMMP-12 wt hydrolysis (cdMMP-12 wt): significant amounts of fibronectin remained |
| nTIMP-2: N-terminal domain of tissue inhibitor of metalloproteinases 2, endogenous inhibitor of MMPs | – | – | Kd (cdMMP-12 mutant D4): 290 nM |
| nTIMP-1: N-terminal domain of tissue inhibitor of metalloproteinases 1, endogenous inhibitor of MMPs | – | – | Kd (cdMMP-12 mutant D4): 500 nM |
| Fab 2B12: anti-MMP-14 antibody clone; VL SEQ ID NO:90, VH SEQ ID NO:5, CDR-H3 SEQ ID NO:8 (antibody, V domains shown) VH: EVQLVESGGGLVQPGGSLRLSCAASGFNIYYSSMHWVRQAPGKGLEWVAYIYSSSSYTYYADSVKGRFTISADTSKNTAYLQMNSLRAEDTAVYYCARDCCSCVFSQSAGITLACVYVMDYWGQGTLVTVSSAS VL: DIQMTQSPSSLSASVGDRVTITCRASQSVSSAVAWYQQKPGKAPKLLIYSASSLYSGVPSRFSGSRSGTDFTLTISSLQPEDFATYYCQQWGPHYAPITFGQGTKVEIKR | – | – | Inhibition of cdMMP-9 (selectivity) (cdMMP-9): did not inhibit |
| Fab B1B3: anti-BACE-1 antibody clone; VL SEQ ID NO:104, VH SEQ ID NO:61, CDR-H3 SEQ ID NO:64 (antibody, V domains shown) VH: EVQLVESGGGLVQPGGSLRLSCAASGFNISYYSMHWVRQAPGKGLEWVASISPYYGSTYYADSVKGRFTISADTSKNTAYLQMNSLRAEDTAVYYCARERSSCPVGWRDSRFGADGYGLEYWGQGTLVTVSSAS VL: DIQMTQSPSSLSASVGDRVTITCRASQSVSSAVAWYQQKPGKAPKLLIYSASSLYSGVPSRFSGSRSGTDFTLTISSLQPEDFATYYCQQSGHYHSLITFGQGTKVEIKR | 31 nM | 210 nM | – |
| Fab B1A4: anti-BACE-1 antibody clone; VL SEQ ID NO:33, VH SEQ ID NO:37, CDR-H3 SEQ ID NO:40 (antibody, V domains shown) VH: EVQLVESGGGLVQPGGSLRLSCAASGFNISYSSIHWVRQAPGKGLEWVAYISPSSSYTSYADSVKGRFTISADTSKNTAYLQMNSLRAEDTAVYYCARHYYVSVGSGIDYWGQGTLVTVSSAS VL: DIQMTQSPSSLSASVGDRVTITCRASQSVSSAVAWYQQKPGKAPKLLIYSASSLYSGVPSRFSGSRSGTDFTPTISSLQPEDFATYYCQQASASPYALITFGQGTKVEIKR | 21 nM | 41 nM | Binding Affinity KD (associated IgG, in parentheses) (BACE1 [1]): 16 nM; Inhibition Potency KI (associated IgG, in parentheses) (BACE1 [2]): 35 nM |
| Fab 1A5: anti-MMP-14 antibody clone; VL SEQ ID NO:92, VH SEQ ID NO:9, CDR-H3 SEQ ID NO:12 (antibody, V domains shown) VH: EVQLVESGGGLVQPGGSLRLSCAASGFNLYYYYMHWVRQAPGKGLEWVAYIYPYSGSTYYADSVKGRFTISADTSKNTAYLQMNSLRAEDTAVYYCARLDFLMRDIYYDLGGGALGWLIKYAMDYWGQGTLVTVSSAS VL: DIQMTQSPSSLSASVGDRVTITCRASQSVSSAVAWYQQKPGKAPKLLIYSASSLYSGVPSRFSGSRSGTDFTLTISSLQPEDFATYYCQQYSGPYPITFGQGTKVEIKR | – | – | Inhibition of cdMMP-9 (selectivity) (cdMMP-9): did not inhibit |
| Fab B2B5: anti-BACE-1 antibody clone; VL SEQ ID NO:100, VH SEQ ID NO:41, CDR-H3 SEQ ID NO:43 (antibody, V domains shown) VH: EVQLVESGGGLVQPGGSLRLSCAASGFNIYYSYMHWVRQAPGKGLEWVASIYPYYGSTYYADSVKGRFTISADTSKNTAYLQMNSLRAEDTAVYYCARWHGYPPGYSYYSSFSSSGFDYWGQGTLVTVSSAS VL: DIQMTQSPSSLSASVGDRVTITCRASQSVSSAVAWYQQKPGKAPKLLIYSASSLYSGVPSRFSGSRSGTDFTPTISSLQPEDFATYYCQQSYFSYPITFGQGTKVEIKR | 130 nM | 77 nM | – |
| Fab B2B2: anti-BACE-1 antibody clone; VL SEQ ID NO:44, VH SEQ ID NO:46, CDR-H3 SEQ ID NO:49 (antibody, V domains shown) VH: EVQLVESGGGLVQPGGSLRLSCAASGFNISSYYMHWVRQAPGKGLEWVASIYSSYGYTYYADSVKGRFTISADTSKNTAYLQMNSLRAEDTAVYYCARYWGYYAWFGSHPWAYGAFDYWGQGTLVTVSSAS VL: DIQMTQSPSSLSASVGDRVTITCRASQSVSSAVAWYQQKPGKAPKLLIYSASSLYSGVPSRFSGSRSGTDFTLTISSLQPEDFATYYCQQYGYYLITFGQGTKVEIKR | 52 nM | 87 nM | – |
| Fab B2B3: anti-BACE-1 antibody clone; VL SEQ ID NO:102, VH SEQ ID NO:50, CDR-H3 SEQ ID NO:52 (antibody, V domains shown) VH: EVQLVESGGGLVQPGGSLRLSCAASGFNISYSSIHWVRQAPGKGLEWVAYISSYSSSTYYADSVKGRFTISADTSKNTAYLQMNSLRAEDTAVYYCARSASGIDYWGQGTLVTVSSAS VL: DIQMTQSPSSLSASVGDRVTITCRASQSVSSAVAWYQQKPGKAPKLLIYSASSLYSGVPSRFSGSRSGTDFTLTISSLQPEDFATYYCQQSGYAPFTFGQGTKVEIKR | 100 nM | 100 nM | – |
| Fab B2B9: anti-BACE-1 antibody clone; VL SEQ ID NO:96, VH SEQ ID NO:53, CDR-H3 SEQ ID NO:56 (antibody, V domains shown) VH: EVQLVESGGGLVQPGGSLRLSCAASGFNISYSSMHWVRQAPGKGLEWVASIYPSYSYTSYADSVKGRFTISADTSKNTAYLQMNSLRAEDTAVYYCARSSSSYYYGMDYWGQGTLVTVSSAS VL: DIQMTQSPSSLSASVGDRVTITCRASQSVSSAVAWYQQKPGKAPKLLIYSASSLYSGVPSRFSGSRSGTDFTLTISSLQPEDFATYYCQQSSYSLITFGQGTKVEIKR | 110 nM | 120 nM | – |
| Fab B3B12: anti-BACE-1 antibody clone; VL SEQ ID NO:25, VH SEQ ID NO:29, CDR-H3 SEQ ID NO:32 (antibody, V domains shown) VH: EVQLVESGGGLVQPGGSLRLSCAASGFNIPYSSMHWVRQAPGKGLEWVASISSYSSSTSYADSVKGRFTISADTSKNTAYLQMNSLRAEDTAVYYCARYICGHRWRDFDMWRARTGVNYAMDYWGQGTLVTVSSAS VL: DIQMTQSPSSLSASVGDRVTITCRASQSVGTYLNWYQQKPGKAPKLLIYATSNLRSGVPSRFSGSGSGTDFTLTISSLQPEDFATYYCQQSYSIPRFTFGPGTKLEIKR | 10 nM | 23 nM | Binding Affinity KD (associated IgG, in parentheses) (BACE1 [1]): 7 nM; Inhibition Potency KI (associated IgG, in parentheses) (BACE1 [2]): 13 nM |
| IgG B3B12: anti-BACE1 inhibitory Fab B3B12 converted into IgG format (antibody, V domains shown) VH: EVQLVESGGGLVQPGGSLRLSCAASGFNIPYSSMHWVRQAPGKGLEWVASISSYSSSTSYADSVKGRFTISADTSKNTAYLQMNSLRAEDTAVYYCARYICGHRWRDFDMWRARTGVNYAMDYWGQGTLVTVSSAS VL: DIQMTQSPSSLSASVGDRVTITCRASQSVGTYLNWYQQKPGKAPKLLIYATSNLRSGVPSRFSGSGSGTDFTLTISSLQPEDFATYYCQQSYSIPRFTFGPGTKLEIKR | – | – | Binding Affinity KD (associated IgG, in parentheses) (BACE1 [1]): 7 nM; Inhibition Potency KI (associated IgG, in parentheses) (BACE1 [2]): 13 nM; Inhibition of BACE2 (selectivity) (BACE2): but not BACE2 |
